From patent publication US20090305973A1, “NOVEL PEPTIDE AND USE THEREOF” (priority 2006, published 2009)
Where no end group is shown, it is not given here.

B1: AIMP1-(54-192): recombinant deletion mutant of AIMP1, expressed as GST-tag fusion protein (protein, UniProt Q12904 54-192, looked up, fragment)
chain: KLKKEIEELKQELIQAEIQNGVKQIPFPSGTPLHANSMVSENVIQSTAVTTVSSGTKEQIKGGTGDEKKAKEKIEKKGEKKEKKQQSIAGSADSKPIDVSRLDLRIGCIITARKHPDADSLYVEEVDVGEIAPRTVVSG
modifications: GST tag
notes: recombinant deletion mutant of AIMP1, expressed as GST-tag fusion protein
B2: AIMP1-(114-192): recombinant deletion mutant of AIMP1, expressed as GST-tag fusion protein (protein, UniProt Q12904 114-192, looked up, fragment)
chain: KGGTGDEKKAKEKIEKKGEKKEKKQQSIAGSADSKPIDVSRLDLRIGCIITARKHPDADSLYVEEVDVGEIAPRTVVSG
modifications: GST tag
notes: as for B1
B3: AIMP1-(30-192): recombinant deletion mutant of AIMP1, expressed as GST-tag fusion protein (protein, UniProt Q12904 30-192, looked up, fragment)
chain: SLLKEKAILQATLREEKKLRVENAKLKKEIEELKQELIQAEIQNGVKQIPFPSGTPLHANSMVSENVIQSTAVTTVSSGTKEQIKGGTGDEKKAKEKIEKKGEKKEKKQQSIAGSADSKPIDVSRLDLRIGCIITARKHPDADSLYVEEVDVGEIAPRTVVSG
modifications: GST tag
notes: as for B1
B4: AIMP1-(101-192): recombinant deletion mutant of AIMP1, expressed as GST-tag fusion protein (protein, UniProt Q12904 101-192, looked up, fragment)
chain: AVTTVSSGTKEQIKGGTGDEKKAKEKIEKKGEKKEKKQQSIAGSADSKPIDVSRLDLRIGCIITARKHPDADSLYVEEVDVGEIAPRTVVSG
modifications: GST tag
notes: as for B1
B5: AIMP1-(47-192): recombinant deletion mutant of AIMP1, expressed as GST-tag fusion protein (protein, UniProt Q12904 47-192, looked up, fragment)
chain: KLRVENAKLKKEIEELKQELIQAEIQNGVKQIPFPSGTPLHANSMVSENVIQSTAVTTVSSGTKEQIKGGTGDEKKAKEKIEKKGEKKEKKQQSIAGSADSKPIDVSRLDLRIGCIITARKHPDADSLYVEEVDVGEIAPRTVVSG
modifications: GST tag
notes: as for B1
B6: AIMP1-(1-192): recombinant deletion mutant of AIMP1, expressed as GST-tag fusion protein (protein, listed as Homo sapiens)
chain: MANNDAVLKRLEQKGAEADQIIEYLKQQVSLLKEKAILQATLREEKKLRVENAKLKKEIEELKQELIQAEIQNGVKQIAFPSGTPLHANSMVSENVIQSTAVTTVSSGTKEQIKGGTGDEKKAKEKIEKKGEKKEKKQQSIAGSADSKPIDVSRLDLRIGCIITARKHPDADSLYVEEVDVGEIAPRTVVSG
modifications: GST tag fusion; PEPTIDE (1)..(192) AIMP1-(1-192)
notes: as for B1
B7: AIMP1-(6-192): recombinant deletion mutant of AIMP1, expressed as GST-tag fusion protein (protein, listed as Homo sapiens)
chain: AVLKRLEQKGAEADQIIEYLKQQVSLLKEKAILQATLREEKKLRVENAKLKKEIEELKQELIQAEIQNGVKQIAFPSGTPLHANSMVSENVIQSTAVTTVSSGTKEQIKGGTGDEKKAKEKIEKKGEKKEKKQQSIAGSADSKPIDVSRLDLRIGCIITARKHPDADSLYVEEVDVGEIAPRTVVSG
modifications: GST tag fusion; PEPTIDE (1)..(187) AIMP1-(6-192)
notes: as for B1
B8: AIMP1-(1-312): full-length ARS-interacting multi-functional protein 1 consisting of 312 amino acids (protein, listed as Homo sapiens)
chain: MANNDAVLKRLEQKGAEADQIIEYLKQQVSLLKEKAILQATLREEKKLRVENAKLKKEIEELKQELIQAEIQNGVKQIAFPSGTPLHANSMVSENVIQSTAVTTVSSGTKEQIKGGTGDEKKAKEKIEKKGEKKEKKQQSIAGSADSKPIDVSRLDLRIGCIITARKHPDADSLYVEEVDVGEIAPRTVVSGLVNHVPLEQMQNRMVILLCNLKPAKMRGVLSQAMVMCASSPEKIEILAPPNGSVPGDRITFDAFPGEPDKELNPKKKIWEQIQPDLHTNDECVATYKGVPFEVKGKGVCRAQTMSNSGIK
B9: AIMP1-(193-312): recombinant deletion mutant of AIMP1, expressed as GST-tag fusion protein (protein, UniProt Q12904 193-312, looked up, fragment)
chain: LVNHVPLEQMQNRMVILLCNLKPAKMRGVLSQAMVMCASSPEKIEILAPPNGSVPGDRITFDAFPGEPDKELNPKKKIWEQIQPDLHTNDECVATYKGVPFEVKGKGVCRAQTMSNSGIK
modifications: GST tag
notes: as for B1

Key:
C57BL/6 mice = experiment: In vivo wound healing (wound closure) of excised back skin wound; conditions: 200 nM in PBS containing 20% glycerol, applied to wound twice a day until day 8, 0.5 cm-diameter back wound
Experimental: AIMP1-(14-34) (SEQ ID NO: 6) and AIMP1-(26-46) (SEQ ID NO: 7) fragments smaller than the AIMP1-(6-46) fragment synthesized in Example 3 were synthesized by a chemical synthetic method in Peptron (http://www.peptron.co.kr), and the wound healing-promoting activities thereof were analyzed in vivo. The analysis of the wound healing activities was performed using 8-week-old C57BL/6 mice. The mice were anesthetized with an intraperitoneal injection of 2.5% avertin (100 μl/10 g), and then the back of each animal was shaved, followed by disinfecting the back skin with 70% alcohol. The back skin was marked with a 0.5 cm-diameter circle, and a skin and panniculus carnosus muscle was removed with scissors to induce a wound. The wounds were left uncovered without a dressing. One wound was generated per mouse and treated with 200 nM of each of AIMP1-(14-34), AIMP1-(26-46) and AIMP1-(6-46) fragments in PBS (phosphate-buffered saline) containing 20% glycerol, twice a day at 12-hour intervals until day 8 after wounding. A control group was treated only with PBS containing 20% glycerol. Then, wound closure was monitored daily using the Image-pro Plus software and was calculated as the percentage of the initial wound area.

[1] = test system: Human foreskin fibroblast cells; experiment: Fibroblast proliferation, tritium-labeled thymidine incorporation; assay type: cell-based; conditions: for activity of inducing the proliferation of fibroblast cells: 100 nM, 12 hours, incorporated thymidine
Experimental: (§1) Human foreskin fibroblast cells (MC1232 obtained from MIT), U2OS cells (ATCC HTB-96) and bovine aorta endothelial cells (hereinafter, referred to as “BAECs”) were treated with the AIMP1 fragments cleaved by elastase 2 in Test Example <1-1>, and the effects of the AIMP1 fragments on the proliferation of the cells were examined.
(§2) Bovine aorta endothelial cells (BAECs) were isolated from bovine descending thoracic aorta and cultured in Dulbecco's modified Eagle's medium (DMEM) containing 20% FBS at 37° C. in a 5% CO2 atmosphere. The foreskin fibroblast cells and the U2OS cells were cultured in DMEM with 10% FBS and 1% antibiotic. Each of the cultured cell lines (5×10^3 cells) was cultivated in a 24-well dish for 12 hours and then subjected to serum-starved culture for 3 hours. Next, 100 nM of a full-length AIMP1 or fragments of AIMP1 cleaved with an enzyme were added to each well and cultivated for 12 hours. The control group was without the testing agents. After completion of the cultivation, tritium-labeled thymidine (1 μCi/well) was added to each well, and the cells were additionally cultured at 37° C. for 4 hours. The cultured cells were washed with PBS three times and fixed with 5% TCA for 10 minutes, followed by washing again with PBS three times. The cells were lysed with 0.5N NaOH, and the incorporated thymidine was quantified with a liquid scintillation counter.
In order to examine the fibroblast proliferation activities of the recombinant proteins constructed in Example 1, foreskin fibroblast cells were treated with each of the recombinant proteins in the same manner as in Test Example <1-2>, and the proliferation of the fibroblast cells was examined.
Whether the AIMP1-(6-46) fragment synthesized in Example <3-1> stimulates the proliferation of fibroblast cells was examined in the same manner as in Test Example <1-2>. Herein, the AIMP1-(6-46) fragment was used at various concentrations ([…]), and 100 nM of the full-length AIMP1 (AIMP1-(1-132)) was used as a control.

[2] = test system: bovine aorta endothelial cells; experiment: Endothelial cell proliferation, tritium-labeled thymidine incorporation; assay type: cell-based; conditions: 100 nM, 12 hours, BAECs, incorporated thymidine
Experimental: as §1, §2

Molecule	activity of inducing the proliferation of fibroblast cells ([1]; foreskin fibroblast cells)	also measured
AIMP1-(14-34): 21-amino-acid fragment of AIMP1-(6-46), chemically synthesized (KGAEADQIIEYLKQQVSLLKE; PEPTIDE (1)..(21) AIMP1-(14-34); listed as Homo sapiens)		activity of promoting wound healing (wound closure as percentage of the initial wound area) (C57BL/6 mice): had the activities of promoting wound healing
AIMP1-(1-53): recombinant deletion mutant of AIMP1, expressed as GST-tag fusion protein (MANNDAVLKRLEQKGAEADQIIEYLKQQVSLLKEKAILQATLREEKKLRVENA; also: GST tag fusion, end not given here; listed as Homo sapiens)	high proliferation-inducing activity	
NH2-AVLKRLEQKGAEADQIIEYLKQQVSLLKEKAILQATLREEK-COOH (H-AVLKRLEQKGAEADQIIEYLKQQVSLLKEKAILQATLREEK-OH; listed as Homo sapiens) [AIMP1-(6-46), peptide corresponding to amino acids 6-46 of AIMP1, expressed in E. coli]		proliferation of fibroblast cells, dose dependence ([1]; concentrations 0, 50, 100 and 200 mM (so in the source), foreskin fibroblast cells): induced the proliferation of fibroblast cells in a dose-dependent manner; fibroblast proliferation activity compared with full-length AIMP1 at the same concentration ([1]; control 100 nM full-length AIMP1): almost similar to the full-length AIMP1; activity of promoting wound healing (wound closure as percentage of the initial wound area) (C57BL/6 mice): had the activities of promoting wound healing
AIMP1-(26-46): 21-amino-acid fragment of AIMP1-(6-46), chemically synthesized (KQQVSLLKEKAILQATLREEK; PEPTIDE (1)..(21) AIMP1-(26-46); listed as Homo sapiens)		activity of promoting wound healing (wound closure as percentage of the initial wound area) (C57BL/6 mice): had the activities of promoting wound healing
AIMP1-(1-46): recombinant deletion mutant of AIMP1, expressed as GST-tag fusion protein (MANNDAVLKRLEQKGAEADQIIEYLKQQVSLLKEKAILQATLREEK; also: GST tag fusion, end not given here; listed as Homo sapiens)	high proliferation-inducing activity	
B1	did not	
B2	did not	
B3	did not	
B4	did not	
B5	did not	
B6	high proliferation-inducing activity	
B7	high proliferation-inducing activity	
B8	high proliferation-inducing activity	activity of inhibiting the proliferation of endothelial cells [2]: inhibiting the proliferation of endothelial cells
B9	did not	
